{"source": "patent US7790697B2", "about": "“Compositions and methods for inhibiting the synthesis or expression of MMP-1” (Trustees of Dartmouth College, priority 2004, dated 2010)", "molecules": {"B1": {"name": "MMP-1 shRNA: Vector-expressed small hairpin RNA, SEQ ID NO:1 (sense) and SEQ ID NO:2 (antisense), specific to bases 234-252 of MMP-1 mRNA (nucleic acid)", "sense": "GATCCCCACCAGATGCTGAAACCCTGTTCAAGAGACAGGGTTTCAGCATCTGGTTTTTTGGAAA", "antisense": "AGCTTTTCCAAAAAACCAGATGCTGAAACCCTGTCTCTTGAACAGGGTTTCAGCATCTGGTGGG", "modifications": "the letters are possibly those of the target site"}}, "key": {"MMP-1 mRNA": {"tested_on": "MMP-1 mRNA", "test": "MMP-1 mRNA by real-time RT-PCR in transiently transfected NIH/3T3 cells", "assay_type": "cell-based, human", "settings": "NIH/3T3 cells co-transfected with pCMV-MMP-1 and peGFP; 48 hours after transfection; normalized to eGFP mRNA; P=0.015", "method": "Transfection of NIH/3T3 and MDA-231 Cells. NIH/3T3 cells were transiently transfected with LIPOFECTAMINE™ 2000 (INVITROGEN™, Carlsbad, Calif.) along with 0.5 μg peGFP, 0.5 μg pCMV-MMP-1, and 2 μg PSUPER™-MMP-1 shRNA or PSUPER™ with no insert. Transfection efficiency was monitored using eGFP signal. Total cellular RNA was harvested 48 hours after transfection and analyzed for MMP-1 mRNA by real-time RT-PCR. MDA-231 cells were stably transfected in triplicate with LIPOFECTAMINE™ 2000 (INVITROGEN™, Carlsbad, Calif.) and 2 μg of the PSUPER™.Retro.Neo.GFP plasmid containing the MMP-1 shRNA, the scrambled sequence or just the empty vector. Stable cell lines were selected by growth in the presence of 1 mg/mL G418 (STRATAGENE®, La Jolla, Calif.). Individual, stable cell lines were isolated with cloning disks according to the manufacturer's instructions (PGC Scientifics, Frederick, Md.).\nRNA Isolation and Real-Time RT-PCR.\nTo test the efficacy of the shRNA inhibition of MMP-1 expression, shRNA composed of SEQ ID NO:1 and SEQ ID NO:2 was cloned it into the PSUPER™ shRNA vector. Two PSUPER™ plasmids were used; one with the MMP-1 shRNA sequence to block MMP-1 gene expression, and one with only the plasmid vector. […]"}, "MDA-231 cells": {"tested_on": "MDA-231 cells", "test": "Cell proliferation assay (MTT)", "assay_type": "cell-based", "settings": "from 24 to 48 hours (in 24 hours); p=0.13 vs empty vector", "method": "Cell Proliferation Assay. The proliferation rate of the stably transfected MDA-231 cell lines at 24 and 48 hours was determined with a MTT assay as described in the manufacturer's protocol (ATCC). The optimum cell count was 10,000 cells per well of a 96-well tissue culture dish.\nTherefore, the only measured differences between the two groups of cell lines were the levels of MMP-1 mRNA and protein."}, "[1]": {"tested_on": "MDA-231 cells in type I collagen gel", "test": "In vitro collagen gel destruction assay", "assay_type": "cell-based", "settings": "MDA-231 cells producing the shRNA", "method": "In vitro Collagen Gel Destruction Assay. Collagen preparations were carried out on ice to prevent premature jelling. A solution of purified type I bovine collagen (Cohesion Technologies, Palo Alto, Calif.) was neutralized with a sterile 10× phosphate-buffered saline (pH 7.4), and 0.1 M NaOH. The solution of neutralized collagen (2 mg/mL) was mixed with an equivalent volume of cells suspended in serum free DMEM to yield a final concentration of 2×10^5 cells/mL in 1 mg/mL fibrillar collagen, and 1 mL of the collagen/cell mixture was added to each well of a six-well plate. After approximately 1 hour, the collagen jelled, and 1 mL of serum-free media was added on top of the gel. For some experiments, 25 μM ILOMASTAT® (CHEMICON®, Temecula, Calif.), 50 U/mL aprotinin (Sigma, St. Louis, Mo.), 1 μg/mL neutralizing MMP-1 antibody (MMP-1 ab-5; ONCOGENE™ Research Products, San Diego, Calif.), 1 μg/mL monoclonal FLAG® antibody (Sigma, St. Louis, Mo.), or 1% DMSO were added to the collagen before it jelled. After 36 hours of incubation at 37° C. the medium was removed from the top of collagen gels and weighed. The weight of media added at the start of the 37° C. incubation (1 gram) was subtracted from the total media weights to reveal the amount of media liberated by collagen gel destruction.\nAn in vitro collagen destruction assay was developed to determine whether the MMP-1 levels in MDA-231 cells with the empty vector were functionally capable of degrading a collagen matrix, and whether the shRNA-mediated reduction in MMP-1 was sufficient to change the invasive behavior of the cells. MDA-231 cells harboring either the empty vector or the MMP-1 shRNA were embedded in a solution of type I collagen (1 mL). The collagen was allowed to solidify at 37° C., and 1 mL of serum-free medium was layered on top of each gel. After 36 hours at 37° C., the medium was removed from each well and photographs were taken. No collagen was visible in wells containing MDA-231 cells with the empty vector. […] The medium removed from each well was weighed to quantitate the amount of medium liberated as the gel was destroyed. After 36 hours, approximately 1 mL (0.8±0.06 grams) of medium was liberated from the collagen gels containing the MDA-231 cells with the empty vector. […] Conversely, no medium (−0.01±0.03 grams) was liberated from collagen gels containing MDA-231 cells producing the MMP-1 shRNA. The slight decrease in the volume of medium recovered may be due to evaporation of the medium during the incubation period."}}}
{"molecule": "B1", "values": [{"measurement": "MMP-1 mRNA levels lower than empty vector", "setting": "MMP-1 mRNA", "result": 73, "unit": "%"}, {"measurement": "fold increase in metabolic activity", "setting": "MDA-231 cells", "result": "2.03±0.06", "unit": "fold"}, {"measurement": "appearance of collagen gel", "setting": "[1]; 36 hours", "result": "appeared to be intact"}, {"measurement": "medium liberated from collagen gels", "setting": "[1]; 36 hours at 37° C.", "result": "−0.01±0.03", "unit": "grams"}, {"measurement": "collagen gel destruction", "setting": "[1]; as long as five days", "result": "no collagen gel destruction"}]}
